The values below come from patent publication US20030224487A1.

For assay [1], the target named is human zcytor17 receptor, full length, on transfected cells (human). The experiment in a line: flow cytometry (SA-PE), BHK-C17 cells, ligand 0.0 µg/mL (no ligand, background). (In flow cytometry, cells or beads pass a laser one at a time.)
For assay [2] the target is unchanged. Kind of assay: flow cytometry (SA-PE), BHK-C17 cells, ligand 0.100 µg/mL.
The target in assay [3] is human zcytor17 and OSMRbeta co-expressed on transfected cells (human). Kind of assay: flow cytometry (SA-PE), BAF3-C17 + OSMRbeta cells, ligand 0.04 µg/mL.
For assay [4], the target named is human zcytor17 receptor, full length, on transfected cells (human). Kind of assay: flow cytometry (SA-PE), BHK-C17 cells, ligand 0.010 µg/mL.
The target is the same in assay [5]. The experiment in a line: flow cytometry (SA-PE), BAF3-C17 cells, ligand 0.0 ng/mL (no ligand, background).
For assay [6], the target named is human zcytor17 and OSMRbeta co-expressed on transfected cells (human). The experiment in a line: flow cytometry (SA-PE), BAF3-C17 + OSMRbeta cells, ligand 0.37 µg/mL.
In assay [7] the target is human OncostatinM receptor beta (OSMRbeta), full length, on transfected cells (human). Kind of assay: flow cytometry (SA-PE), BAF3-OSMRbeta cells, ligand 0.37 µg/mL (background level; no binding).
Assay [8] deals with human zcytor17 and OSMRbeta co-expressed on transfected cells (human). The experiment in a line: flow cytometry (SA-PE), BAF3-C17 + OSMRbeta cells, ligand 0.12 µg/mL.
Assay [9] addresses human zcytor17 receptor, full length, on transfected cells (human). The experiment in a line: flow cytometry (SA-PE), BHK-C17 cells, ligand 0.001 µg/mL.
Assay [10] has the same target. Kind of assay: flow cytometry (SA-PE), BHK-C17 cells, ligand 0.00001 µg/mL.
Assay [11] concerns the target human zcytor17 and OSMRbeta co-expressed on transfected cells (human). Kind of assay: flow cytometry (SA-PE), BHK C17 + OSMRbeta cells, ligand 0.010 µg/mL.
The target is the same in assay [12]. Kind of assay: flow cytometry (SA-PE), BAF3-C17 + OSMRbeta cells, ligand 10.0 µg/mL.
Assay [13] has the same target. Kind of assay: flow cytometry (SA-PE), BHK C17 + OSMRbeta cells, ligand 2.0 µg/mL.
Assay [14] has as its target human zcytor17 receptor, full length, on transfected cells (human). The experiment in a line: flow cytometry (SA-PE), BAF3-C17 cells, ligand 10.0 ng/mL.
For assay [15], the target named is human zcytor17 and OSMRbeta co-expressed on transfected cells (human). The experiment in a line: flow cytometry (SA-PE), BHK C17 + OSMRbeta cells, ligand 0.0 µg/mL (no ligand, background).
Assay [16] has as its target human OncostatinM receptor beta (OSMRbeta), full length, on transfected cells (human). Kind of assay: flow cytometry (SA-PE), BAF3-OSMRbeta cells, ligand 10.0 µg/mL (background level; no binding).
The target is the same in assay [17]. Kind of assay: flow cytometry (SA-PE), BAF3-OSMRbeta cells, ligand 1.11 µg/mL (background level; no binding).
In assay [18] the target is human zcytor17 receptor, full length, on transfected cells (human). Kind of assay: flow cytometry (SA-PE), BAF3-C17 cells, ligand 100.0 ng/mL.
Assay [19] has as its target human zcytor17 and OSMRbeta co-expressed on transfected cells (human). Kind of assay: flow cytometry (SA-PE), BHK C17 + OSMRbeta cells, ligand 0.100 µg/mL.
Assay [20] concerns the target human zcytor17 receptor, full length, on transfected cells (human). The experiment in a line: flow cytometry (SA-PE), BHK-C17 cells, ligand 2.0 µg/mL.
For assay [21] the target is unchanged. Kind of assay: flow cytometry (SA-PE), BHK-C17 cells, ligand 0.000001 µg/mL.
In assay [22] the target is human zcytor17 and OSMRbeta co-expressed on transfected cells (human). The experiment in a line: flow cytometry (SA-PE), BHK C17 + OSMRbeta cells, ligand 0.00001 µg/mL.
For assay [23], the target named is human zcytor17 receptor, full length, on transfected cells (human). Kind of assay: flow cytometry (SA-PE), BAF3-C17 cells, ligand 1.0 ng/mL.
In assay [24] the target is human OncostatinM receptor beta (OSMRbeta), full length, on transfected cells (human). The experiment in a line: flow cytometry (SA-PE), BAF3-OSMRbeta cells, ligand 3.33 µg/mL (background level; no binding).
The target is the same in assay [25]. Kind of assay: flow cytometry (SA-PE), BAF3-OSMRbeta cells, ligand 0.04 µg/mL (background level; no binding).
For assay [26] the target is unchanged. Kind of assay: flow cytometry (SA-PE), BHK-OSMRbeta cells, ligand 0.0 µg/mL (no ligand, background).
The target of assay [27] is human zcytor17 receptor, full length, on transfected cells (human). The experiment in a line: flow cytometry (SA-PE), BHK-C17 cells, ligand 0.0001 µg/mL.
The target in assay [28] is human zcytor17 and OSMRbeta co-expressed on transfected cells (human). The experiment in a line: flow cytometry (SA-PE), BHK C17 + OSMRbeta cells, ligand 0.0001 µg/mL.
Assay [29] has as its target human OncostatinM receptor beta (OSMRbeta), full length, on transfected cells (human). Kind of assay: flow cytometry (SA-PE), BHK-OSMRbeta cells, ligand 2.0 µg/mL (background level; no binding).
Assay [30] concerns the target human zcytor17 and OSMRbeta co-expressed on transfected cells (human). Kind of assay: flow cytometry (SA-PE), BHK C17 + OSMRbeta cells, ligand 0.001 µg/mL.
Assay [31] shares this target. Kind of assay: flow cytometry (SA-PE), BHK C17 + OSMRbeta cells, ligand 0.000001 µg/mL.
Assay [32] addresses human OncostatinM receptor beta (OSMRbeta), full length, on transfected cells (human). The experiment in a line: flow cytometry (SA-PE), BAF3-OSMRbeta cells, ligand 0.12 µg/mL (background level; no binding).
In assay [33] the target is human zcytor17 and OSMRbeta co-expressed on transfected cells (human). The experiment in a line: flow cytometry (SA-PE), BAF3-C17 + OSMRbeta cells, ligand 0.00 µg/mL (no ligand, background).
Assay [34] addresses human OncostatinM receptor beta (OSMRbeta), full length, on transfected cells (human). The experiment in a line: flow cytometry (SA-PE), BAF3-OSMRbeta cells, ligand 0.00 µg/mL (no ligand, background).
In assay [35] the target is human zcytor17 and OSMRbeta co-expressed on transfected cells (human). Kind of assay: flow cytometry (SA-PE), BAF3-C17 + OSMRbeta cells, ligand 3.33 µg/mL.
Assay [36] has the same target. The experiment in a line: flow cytometry (SA-PE), BAF3-C17 + OSMRbeta cells, ligand 1.11 µg/mL.
Assay [37] concerns the target human zcytor17, OSMRbeta and WSX-1 co-expressed on transfected cells (human). The experiment in a line: cell-based or functional assay.
Assay [38] deals with human zcytor17 and OSMRbeta co-expressed on transfected cells (human). Kind of assay: cell-based or functional assay.

On to biotinylated human zcytor17L (ligand), for which the mean fluorescent intensity (MFI) in [1] amounted to 15; in assay [2] it was 1600; in assay [3], 247; in assay [4], 244; in assay [5], 7; in assay [6], 441. Moreover, the mean fluorescent intensity (MFI) stood at 5 in assay [7]; 364 in assay [8]; 39 in assay [9]; 15 in assay [10]; 328 in assay [11]; 531 in assay [12]. Moreover, the mean fluorescent intensity (MFI) in assay [13] was determined as 3780; in assay [14] it was 72; in [15], 13; in assay [16], 6; in assay [17], 5; in assay [18] it was 347. For the same molecule, the mean fluorescent intensity (MFI) in assay [19] was found to be 2130; in assay [20], 3030; in [21], 14; in assay [22], 15; in assay [23], 17; in assay [24], 5. Further, the mean fluorescent intensity (MFI) in [25] came out at 5; in assay [26], 0; in assay [27] it was 16; in assay [28] it was 17; in assay [29], 13; in assay [30], 53. The mean fluorescent intensity (MFI) stood at 14 in [31]; 5 in assay [32]; 7 in assay [33]; 11 in [34]; 508 in assay [35]; 489 in assay [36].

B1: human zcytor17lig (untagged, expressed from cDNA or native in conditioned media) (ligand)
chain: MASHSGPSTSVLFLFCCLGGWLASHTLPVRLLRPSDDVQKIVEELQSLSKMLLKDVEEEKGVLVSQNYTLPCLSPDAQPPNNIHSPAIRAYLKTIRQLDNKSVIDEIIEHLDKLIFQDAPETNISVPTDTHECKRFILTISQQFSECMDLALKSLTSGAQQATT
As to B1, in assay [37], the proliferation of BaF3/zcytor17/WSX-1/OSMRbeta cells (Alamar Blue) with conditioned media from activated CCRF-CEM and CCRF-HSB2 cells (fold over background) was determined as 10; the proliferation of BaF3/zcytor17/WSX-1/OSMRbeta cells (Alamar Blue) with conditioned media from activated CD3+ selected human cells (fold over background) was 15. Also, in assay [38], the proliferation of BaF3/zcytor17/OSMRbeta cells (Alamar Blue) with conditioned media from activated CCRF-CEM and CCRF-HSB2 cells (fold over background) is 10; the proliferation of BaF3/zcytor17/OSMRbeta cells (Alamar Blue) with conditioned media from activated CD3+ selected human cells came to 15 fold.
